To fix the notation:
B1: Transcription factor SOX-11, residues 50 to 117; numbered along this chain, P35716 (parent)
chain: KRPMNAFMVWSKIERRKIMEQSPDMHNAEISKRLGKRWKMLKDSEKIPFIREAERLRLKHMADYPDYK
B2: Cell division cycle and apoptosis regulator protein 1, residues 625 to 674; numbered along this chain, Q8IX12 (parent)
chain: ISTPTHWSKLDPKTMKVNDLRKELESRALSSKGLKSQLIARLTKQLKVEE

Data on 153 variants can be found in the Human Domainome abundance scans (Beltran et al. 2025).

± gives the uncertainty stated by the source.

The variants in one series derive from B1. Description: abundance fitness (aPCA) (normalised: wild type 0, dead -1); higher = more abundant; growth selection in yeast, the domain comes from the species named. The following applies: Homo sapiens.
In the case of L58E, the abundance fitness was -0.294 ± 0.16.
Regarding L58G, the abundance fitness was -0.076 ± 0.054.
In the case of L58P, the abundance fitness is -0.473 ± 0.12.
Regarding L58C, the abundance fitness was -0.116 ± 0.055.
For L58D, the abundance fitness was determined as 0.188 ± 0.056.
With L58V, the abundance fitness was -0.101 ± 0.052.
Same read-out and setting: the result for L58T reads -0.011 ± 0.071.
Consider L58Y, for which the abundance fitness is -0.195 ± 0.055.
Take L58I: the abundance fitness was -0.087 ± 0.054.
On the same count and under the same terms, under L58R stands -0.118 ± 0.069; under L58N, 0.068 ± 0.054; under L58H, 0.065 ± 0.06.
Still for that read-out and setting: the result for L58S reads -0.047 ± 0.046; that for L58M, -0.149 ± 0.13.
Turning to H60M, the abundance fitness was -0.114 ± 0.19.
Take H60T: the abundance fitness is 0.103 ± 0.074.
The same measure, in the same setting: under H60P stands -0.142 ± 0.079; under H60S, -0.017 ± 0.05; under H60L, -0.273 ± 0.068.
Same read-out and setting: under H60W stands -0.607 ± 0.18; under H60Y, -0.03 ± 0.053.
Still for that read-out and setting: the result for H60V reads -0.047 ± 0.061; that for H60N, 0.058 ± 0.055; that for H60I, -0.178 ± 0.066.
On to H60R, for which the abundance fitness is -0.227 ± 0.064.
H60C: the abundance fitness is -0.031 ± 0.06.
Turning to H60G, the abundance fitness turned out to be 0.142 ± 0.055.
Still for that read-out and setting: the result for H60E reads 0.406 ± 0.14; that for H60D, 0.136 ± 0.062.
Take H60Q: the abundance fitness turned out to be 0.222 ± 0.12.
In the case of H60F, the abundance fitness is -0.078 ± 0.058.
Still for that read-out and setting: under R51F stands -0.411 ± 0.055; under R51Y, -0.238 ± 0.058; under R51A, -0.069 ± 0.054.
Take R51K: the abundance fitness was -0.054 ± 0.12.
On the same count and under the same terms, under R51D stands -0.129 ± 0.058.
On the same count and under the same terms, under R51S stands -0.495 ± 0.053; under R51I, -0.104 ± 0.051.
As for R51T, the abundance fitness is -0.29 ± 0.075.
Still for that read-out and setting: under R51H stands -0.289 ± 0.073.
Still for that read-out and setting: the result for R51C reads -0.304 ± 0.058; that for R51M, 0.141 ± 0.14.
Take R51L: the abundance fitness is -0.125 ± 0.054.
Turning to R51V, the abundance fitness was -0.075 ± 0.049.
As to R51Q, the abundance fitness is 0.189 ± 0.15.
The same measure, in the same setting: under R51P stands -0.473 ± 0.11; under R51G, -0.606 ± 0.068; under R57E, 0.283 ± 0.13.
On to R57K, for which the abundance fitness was determined as 0.137 ± 0.11.
Still for that read-out and setting: under R57T stands -0.023 ± 0.07.
The same measure, in the same setting: the result for R57G reads -0.167 ± 0.059; that for R57N, 0.414 ± 0.045.
Still for that read-out and setting: the result for R57A reads 0.023 ± 0.063; that for R57Y, -0.248 ± 0.056.
As for R57P, the abundance fitness is -0.426 ± 0.11.
The same measure, in the same setting: under R57D stands -0.137 ± 0.073; under R57F, -0.432 ± 0.054.
The same measure, in the same setting: under R57L stands -0.335 ± 0.065.
On the same count and under the same terms, under R57W stands -0.114 ± 0.1; under R57V, -0.373 ± 0.066; under R57I, -0.384 ± 0.065.
Consider R57Q, for which the abundance fitness was -0.057 ± 0.12.
Same read-out and setting: the result for R57H reads -0.126 ± 0.067.
Turning to R57M, the abundance fitness was -0.068 ± 0.13.
Still for that read-out and setting: under R57C stands -0.186 ± 0.058; under P65R, -0.495 ± 0.43.
Still for that read-out and setting: under P65S stands 0.269 ± 0.36; under P65Y, -0.41 ± 0.37.
On the same count and under the same terms, the result for P65V reads -0.013 ± 0.47; that for I47V, -0.097 ± 0.041; that for I47W, -0.176 ± 0.083.
Consider I47T, for which the abundance fitness is -0.051 ± 0.057.
On to A53M, for which the abundance fitness is -0.33 ± 0.19.
In the case of A53S, the abundance fitness is -0.506 ± 0.056.
The same measure, in the same setting: the result for A53H reads -0.741 ± 0.1; that for A53G, -0.946 ± 0.087; that for A53K, -1.12 ± 0.34.
On the same count and under the same terms, the result for A53L reads -0.747 ± 0.095.
For the variant A53N, the abundance fitness was -0.474 ± 0.11.
The same measure, in the same setting: under A53V stands -0.749 ± 0.085; under A53I, -0.709 ± 0.098.
In the case of A53Y, the abundance fitness was -0.813 ± 0.09.
The same measure, in the same setting: under A53R stands -0.77 ± 0.087.
On the same count and under the same terms, under A53D stands -0.961 ± 0.12; under A53W, -0.91 ± 0.2; under A53E, -0.622 ± 0.18.
On the same count and under the same terms, under A53F stands -0.64 ± 0.081; under A53T, -0.649 ± 0.11; under A53C, -0.728 ± 0.084.
As for A53P, the abundance fitness was -0.478 ± 0.11.
As to L56V, the abundance fitness was -0.528 ± 0.063.
The same measure, in the same setting: under L56R stands -0.532 ± 0.084.
The same measure, in the same setting: the result for L56M reads 0.079 ± 0.16.
With L56W, the abundance fitness was -0.888 ± 0.26.
The same measure, in the same setting: under L56G stands -0.39 ± 0.066; under L56C, -0.533 ± 0.078; under L56P, -1.1 ± 0.22.
Turning to L56F, the abundance fitness was -0.377 ± 0.056.
In the case of L56I, the abundance fitness was -0.176 ± 0.058.
Still for that read-out and setting: the result for L56Y reads -0.386 ± 0.078; that for L56T, -0.267 ± 0.076.
Turning to L56K, the abundance fitness is -0.664 ± 0.23.
The same measure, in the same setting: the result for L56Q reads -0.26 ± 0.18; that for L56D, -0.247 ± 0.069; that for L56S, -0.199 ± 0.051.
Turning to L56E, the abundance fitness was -0.212 ± 0.18.
Same read-out and setting: the result for L56N reads -0.347 ± 0.06; that for M61W, -0.221 ± 0.16; that for M61R, 0.033 ± 0.065.
On to M61D, for which the abundance fitness came out at 0.09 ± 0.059.
On the same count and under the same terms, the result for M61H reads -0.086 ± 0.06.
On the same count and under the same terms, the result for M61Y reads -0.096 ± 0.052; that for M61P, 0.008 ± 0.078.
Turning to M61C, the abundance fitness turned out to be 0.107 ± 0.05.
As to M61V, the abundance fitness was found to be 0.048 ± 0.057.
Take M61E: the abundance fitness is 0.046 ± 0.12.
On the same count and under the same terms, under M61N stands 0.116 ± 0.053; under M61K, -0.205 ± 0.18; under M61A, 0.144 ± 0.065.
M61T: the abundance fitness is 0.058 ± 0.06.
Still for that read-out and setting: under M61S stands 0.047 ± 0.048; under M61G, 0.07 ± 0.059.
Turning to M61F, the abundance fitness was -0.292 ± 0.06.
Same read-out and setting: under M61I stands 0.011 ± 0.048; under M61Q, 0.077 ± 0.11.
Regarding D66Q, the abundance fitness is -0.115 ± 0.29.
Still for that read-out and setting: under D66P stands -0.234 ± 0.28.
Same read-out and setting: under D66Y stands -0.36 ± 0.087; under D66R, -0.38 ± 0.31; under D66L, -0.226 ± 0.11.
As to D66G, the abundance fitness was -0.027 ± 0.12.
The same measure, in the same setting: the result for D66C reads -0.278 ± 0.13; that for D66T, -0.657 ± 0.24; that for D66F, -0.265 ± 0.11.
On the same count and under the same terms, under D66S stands -0.368 ± 0.091.
As to D66I, the abundance fitness was -0.382 ± 0.13.
As to D66E, the abundance fitness was found to be 0.247 ± 0.18.
On to D66A, for which the abundance fitness was -0.206 ± 0.14.
On the same count and under the same terms, under D66H stands -0.115 ± 0.18; under D66V, -0.545 ± 0.18.

A further series covers variants of B2. The description is as above. The following applies: Homo sapiens.
For the variant FSTPTHWSKLDPKTMKVNDLRKELESRALSSKGLKSQLIARLTKQLKVEE [I1F], the abundance fitness was found to be 0.207 ± 0.13.
On the same count and under the same terms, under GSTPTHWSKLDPKTMKVNDLRKELESRALSSKGLKSQLIARLTKQLKVEE [I1G] stands -0.261 ± 0.08; under CSTPTHWSKLDPKTMKVNDLRKELESRALSSKGLKSQLIARLTKQLKVEE [I1C], -0.398 ± 0.18.
Turning to ASTPTHWSKLDPKTMKVNDLRKELESRALSSKGLKSQLIARLTKQLKVEE [I1A], the abundance fitness was 0.049 ± 0.29.
As to VSTPTHWSKLDPKTMKVNDLRKELESRALSSKGLKSQLIARLTKQLKVEE [I1V], the abundance fitness was -0.11 ± 0.046.
Take LSTPTHWSKLDPKTMKVNDLRKELESRALSSKGLKSQLIARLTKQLKVEE [I1L]: the abundance fitness was -0.3 ± 0.085.
Still for that read-out and setting: the result for ESTPTHWSKLDPKTMKVNDLRKELESRALSSKGLKSQLIARLTKQLKVEE [I1E] reads -0.314 ± 0.11; that for NSTPTHWSKLDPKTMKVNDLRKELESRALSSKGLKSQLIARLTKQLKVEE [I1N], -0.33 ± 0.093.
MSTPTHWSKLDPKTMKVNDLRKELESRALSSKGLKSQLIARLTKQLKVEE [I1M]: the abundance fitness is -0.123 ± 0.058.
With KSTPTHWSKLDPKTMKVNDLRKELESRALSSKGLKSQLIARLTKQLKVEE [I1K], the abundance fitness is -0.257 ± 0.082.
The same measure, in the same setting: under RSTPTHWSKLDPKTMKVNDLRKELESRALSSKGLKSQLIARLTKQLKVEE [I1R] stands -0.458 ± 0.084.
On the same count and under the same terms, under TSTPTHWSKLDPKTMKVNDLRKELESRALSSKGLKSQLIARLTKQLKVEE [I1T] stands -0.145 ± 0.064; under DSTPTHWSKLDPKTMKVNDLRKELESRALSSKGLKSQLIARLTKQLKVEE [I1D], -0.641 ± 0.3.
